Molecular target: full-length Hsp70 (UniProt P0DMV8 1-641)
Assay: NMR titration

Chain of full-length Hsp70 (P0DMV8 whole entry): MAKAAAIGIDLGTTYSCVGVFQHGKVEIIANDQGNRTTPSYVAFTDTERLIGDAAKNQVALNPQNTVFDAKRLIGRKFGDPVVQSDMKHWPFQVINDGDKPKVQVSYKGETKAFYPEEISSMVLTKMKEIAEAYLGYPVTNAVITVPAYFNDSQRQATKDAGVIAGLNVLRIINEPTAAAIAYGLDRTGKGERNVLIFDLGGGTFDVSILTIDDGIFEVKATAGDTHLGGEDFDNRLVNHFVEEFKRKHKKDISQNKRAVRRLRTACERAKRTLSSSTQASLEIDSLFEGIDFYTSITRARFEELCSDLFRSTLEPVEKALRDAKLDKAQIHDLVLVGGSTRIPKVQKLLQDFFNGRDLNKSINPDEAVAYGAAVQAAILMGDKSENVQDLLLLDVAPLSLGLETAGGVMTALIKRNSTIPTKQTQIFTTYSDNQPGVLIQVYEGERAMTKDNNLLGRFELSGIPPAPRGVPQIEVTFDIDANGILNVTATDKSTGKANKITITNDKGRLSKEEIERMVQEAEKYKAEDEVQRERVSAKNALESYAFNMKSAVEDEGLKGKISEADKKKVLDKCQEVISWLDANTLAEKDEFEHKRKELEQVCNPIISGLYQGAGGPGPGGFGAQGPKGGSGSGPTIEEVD

binding result: binds
B1: FUS-LC (residues 1-163) (domain or fragment, UniProt P35637 1-163, looked up)
chain: MASNDYTQQATQSYGAYPTQPGQGYSQQSSQPYGQQSYSGYSQSTDTSGYGQSSYSSYGQSQNTGYGTQSTPQGYGSTGGYGSSQSSQSSYGQQSSYPGYGQQPAPSSTSGSYGSSSQSSSYGQPQSGSYSQQPSYGGQQQSYGQQQSYNPPQGYGQQNQYNS

— publication PMC9127583 (iScience, 2022)
